Reference: publication doi:10.1101/2023.06.03.543554 (bioRxiv, 2023)

Molecular target: T1, human G-protein coupled receptor 1 (GPR1), FLAG-BRIL fusion construct for cryo-EM (human, UniProt P46091 1-355)
T1 sequence: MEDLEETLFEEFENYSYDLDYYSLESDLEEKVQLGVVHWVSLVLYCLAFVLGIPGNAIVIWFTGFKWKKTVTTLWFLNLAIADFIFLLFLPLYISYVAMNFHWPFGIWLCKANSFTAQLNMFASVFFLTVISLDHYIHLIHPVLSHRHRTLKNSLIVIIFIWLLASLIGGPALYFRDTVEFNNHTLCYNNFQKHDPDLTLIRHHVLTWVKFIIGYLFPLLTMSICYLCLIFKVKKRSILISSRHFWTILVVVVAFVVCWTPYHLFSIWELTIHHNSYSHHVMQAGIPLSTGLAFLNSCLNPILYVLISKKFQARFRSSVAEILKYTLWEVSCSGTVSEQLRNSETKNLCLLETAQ
Assay: cryo-EM structure

binding result: binds
B1: full-length chemerin (21-157) (ligand)
chain: ELTEAQRRGLQVALEEFHKHPPVQWAFQETSVESAVDTPFPAGIFVRLEFKLQQTSCRKRDWKKPECKVRPNGRKRKCLACIKLGSEDKVLGRLVHCPIETQVLREAEEHQETQCLRVQRAGEDPHSFYFPGQFAFS
